From article doi:10.1101/2024.07.02.601760

Target: T1, Arabidopsis thaliana 14-3-3 kappa (Arabidopsis thaliana), P48348
T1 chain: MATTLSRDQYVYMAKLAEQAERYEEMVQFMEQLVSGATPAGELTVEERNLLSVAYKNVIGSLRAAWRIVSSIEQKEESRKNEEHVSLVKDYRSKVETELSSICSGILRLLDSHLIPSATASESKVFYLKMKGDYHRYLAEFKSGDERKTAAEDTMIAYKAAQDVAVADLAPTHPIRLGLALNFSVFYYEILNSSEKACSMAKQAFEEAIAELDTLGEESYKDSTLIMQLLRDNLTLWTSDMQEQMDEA
Assay: SEC-MALS
Settings: remark: other sources report otherwise

stoichiometry N: 2
B1: Arabidopsis thaliana 14-3-3 kappa, P48348 1-248 (natural protein)
chain: MATTLSRDQYVYMAKLAEQAERYEEMVQFMEQLVSGATPAGELTVEERNLLSVAYKNVIGSLRAAWRIVSSIEQKEESRKNEEHVSLVKDYRSKVETELSSICSGILRLLDSHLIPSATASESKVFYLKMKGDYHRYLAEFKSGDERKTAAEDTMIAYKAAQDVAVADLAPTHPIRLGLALNFSVFYYEILNSSEKACSMAKQAFEEAIAELDTLGEESYKDSTLIMQLLRDNLTLWTSDMQEQMDEA
